Molecular target: apoMb samples (RNCs bearing apoMb nascent polypeptides of increasing length)
Assay: co-sedimentation

DnaK, sequence (P0A6Y8 whole entry): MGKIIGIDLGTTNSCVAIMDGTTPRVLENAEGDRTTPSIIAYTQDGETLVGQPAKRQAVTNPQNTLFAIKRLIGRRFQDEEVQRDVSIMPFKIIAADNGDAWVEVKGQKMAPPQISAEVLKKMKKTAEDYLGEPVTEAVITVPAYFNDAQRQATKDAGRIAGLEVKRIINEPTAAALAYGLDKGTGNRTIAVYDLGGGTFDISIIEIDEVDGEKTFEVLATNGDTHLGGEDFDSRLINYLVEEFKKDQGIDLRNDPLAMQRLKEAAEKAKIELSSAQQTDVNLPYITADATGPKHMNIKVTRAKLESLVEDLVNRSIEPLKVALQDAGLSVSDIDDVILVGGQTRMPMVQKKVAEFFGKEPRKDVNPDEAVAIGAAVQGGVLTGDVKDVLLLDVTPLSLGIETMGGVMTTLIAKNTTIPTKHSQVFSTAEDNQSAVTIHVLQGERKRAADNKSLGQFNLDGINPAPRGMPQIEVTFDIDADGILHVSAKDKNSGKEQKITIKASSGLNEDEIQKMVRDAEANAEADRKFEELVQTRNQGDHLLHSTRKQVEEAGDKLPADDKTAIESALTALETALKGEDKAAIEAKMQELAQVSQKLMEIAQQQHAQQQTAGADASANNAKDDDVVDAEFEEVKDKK

“DnaK (from UniProt P0A6Y8 1-638) (natural protein)” gave a DnaK concentration in the resuspended RNC pellet of 20 to 65 nM.

— paper PMC2572860
